First the molecules themselves.
B1: Mutation 1-23 (antibody, V domains shown)
VH: EVQLQQPGPELVKPGASVKMSCKASGYTFTSYVIHWVRQKPGQGLEWIGYMNPYNDGLKYNEKFIGKAILTSDKSSSTAYMQLSSLTSEDSAVYYCTKEGLFYVFDYWGQGTSVTVSS
VL: QIVLTQSPAIMSASPGEKVTMTCSATSSLSYMHWYQQKSGTSPKRWIYDSSKLASGVPVRFSGSGSGTSYSLTISSMEAEDAATYFCQQWRSDLPTFGAGTKLELKR
B2: Mutation 1-24 (antibody, V domains shown)
VH: EVQLQQPGPELVKPGASVKMSCKASGYTFTSTVIHWVRQKPGQGLEWIGYMNPYNDGIKYNEKFIGKAILTSDKSSSTAYMQLSSLTSEDSAVYYCTREGLFYVMDYWGQGTSVTVSS
VL: QIVLTQSPAIMSASPGEKVTMTCSATSSVSYMHWYQQKSGTSPKRWIYDTSKLASGVPVRFSGSGSGTSYSLTISSMEAEDAATYFCQYWRSDLPTFGAGTKLELKR
B3: Mutation 1-33 (antibody, V domains shown)
VH: EVQLQQPGPELVKPGASVKMSCKASGYTFTSTVIHWVRQKPGQGLEWIGYMNPYNDGLKYNEKFIGKAILTSDKSSSTAYMQLSSLTSEDSAVYYCTREGLFYVFDYWGQGTSVTVSS
VL: QIVLTQSPAIMSASPGEKVTMTCSATSSISYMHWYQQKSGTSPKRWIYDSSKLASGVPVRFSGSGSGTSYSLTISSMEAEDAATYFCQWWRSDLPTFGAGTKLELKR
B4: Mutation 1-32 (antibody, V domains shown)
VH: EVQLQQPGPELVKPGASVKMSCKASGYTFTSYVIHWVRQKPGQGLEWIGYMNPYNDGIKYNEKFIGKAILTSDKSSSTAYMQLSSLTSEDSAVYYCTKEGLFYVMDYWGQGTSVTVSS
VL: QIVLTQSPAIMSASPGEKVTMTCSATSSVSYMHWYQQKSGTSPKRWIYDTSKLASGVPVRFSGSGSGTSYSLTISSMEAEDAATYFCQQWRSDLPTFGAGTKLELKR
B5: Mutation 1-36 (antibody, V domains shown)
VH: EVQLQQPGPELVKPGASVKMSCKASGYTFTSTVIHWVRQKPGQGLEWIGYMNPYNDGLKYNEKFIGKAILTSDKSSSTAYMQLSSLTSEDSAVYYCTREGLFYVFDYWGQGTSVTVSS
VL: QIVLTQSPAIMSASPGEKVTMTCSATSSLSYMHWYQQKSGTSPKRWIYDSSKLASGVPVRFSGSGSGTSYSLTISSMEAEDAATYFCQQWRSDLPTFGAGTKLELKR
B6: Mutation 1-40 (antibody, V domains shown)
VH: EVQLQQPGPELVKPGASVKMSCKASGYTFTSSVIHWVRQKPGQGLEWIGYMNPYNDGLKYNEKFIGKAILTSDKSSSTAYMQLSSLTSEDSAVYYCTKEGLFYVFDYWGQGTSVTVSS
VL: QIVLTQSPAIMSASPGEKVTMTCSATSSVSYMHWYQQKSGTSPKRWIYDTSKLASGVPVRFSGSGSGTSYSLTISSMEAEDAATYFCQYWRSDLPTFGAGTKLELKR
B7: Mutation 1-28 (antibody, V domains shown)
VH: EVQLQQPGPELVKPGASVKMSCKASGYTFTSSVIHWVRQKPGQGLEWIGYMNPYNDGIKYNEKFIGKAILTSDKSSSTAYMQLSSLTSEDSAVYYCTKEGLFYVMDYWGQGTSVTVSS
VL: QIVLTQSPAIMSASPGEKVTMTCSATSSVSYMHWYQQKSGTSPKRWIYDTSKLASGVPVRFSGSGSGTSYSLTISSMEAEDAATYFCQYWRSDLPTFGAGTKLELKR
B8: Mutation 1-34 (antibody, V domains shown)
VH: EVQLQQPGPELVKPGASVKMSCKASGYTFTSSVIHWVRQKPGQGLEWIGYMNPYNDGIKYNEKFIGKAILTSDKSSSTAYMQLSSLTSEDSAVYYCTREGLFYVFDYWGQGTSVTVSS
VL: QIVLTQSPAIMSASPGEKVTMTCSATSSLSYMHWYQQKSGTSPKRWIYDTSKLASGVPVRFSGSGSGTSYSLTISSMEAEDAATYFCQYWRSDLPTFGAGTKLELKR
B9: Mutation 1-39 (antibody, V domains shown)
VH: EVQLQQPGPELVKPGASVKMSCKASGYTFTSTVIHWVRQKPGQGLEWIGYMNPYNDGIKYNEKFIGKAILTSDKSSSTAYMQLSSLTSEDSAVYYCTREGLFYVFDYWGQGTSVTVSS
VL: QIVLTQSPAIMSASPGEKVTMTCSATSSLSYMHWYQQKSGTSPKRWIYDSSKLASGVPVRFSGSGSGTSYSLTISSMEAEDAATYFCQQWRSDLPTFGAGTKLELKR
B10: Mutation 1-29 (antibody, V domains shown)
VH: EVQLQQPGPELVKPGASVKMSCKASGYTFTSYVIHWVRQKPGQGLEWIGYMNPYNDGIKYNEKFIGKAILTSDKSSSTAYMQLSSLTSEDSAVYYCTREGLFYVFDYWGQGTSVTVSS
VL: QIVLTQSPAIMSASPGEKVTMTCSATSSISYMHWYQQKSGTSPKRWIYDSSKLASGVPVRFSGSGSGTSYSLTISSMEAEDAATYFCQWWRSDLPTFGAGTKLELKR
B11: Mutation 1-25 (antibody, V domains shown)
VH: EVQLQQPGPELVKPGASVKMSCKASGYTFTSSVIHWVRQKPGQGLEWIGYMNPYNDGLKYNEKFIGKAILTSDKSSSTAYMQLSSLTSEDSAVYYCTREGLFYVFDYWGQGTSVTVSS
VL: QIVLTQSPAIMSASPGEKVTMTCSATSSISYMHWYQQKSGTSPKRWIYDSSKLASGVPVRFSGSGSGTSYSLTISSMEAEDAATYFCQWWRSDLPTFGAGTKLELKR
B12: Mutation 1-30 (antibody, V domains shown)
VH: EVQLQQPGPELVKPGASVKMSCKASGYTFTSTVIHWVRQKPGQGLEWIGYMNPYNDGLKYNEKFIGKAILTSDKSSSTAYMQLSSLTSEDSAVYYCTREGLFYVMDYWGQGTSVTVSS
VL: QIVLTQSPAIMSASPGEKVTMTCSATSSLSYMHWYQQKSGTSPKRWIYDTSKLASGVPVRFSGSGSGTSYSLTISSMEAEDAATYFCQYWRSDLPTFGAGTKLELKR
B13: Mutation 1-31 (antibody, V domains shown)
VH: EVQLQQPGPELVKPGASVKMSCKASGYTFTSSVIHWVRQKPGQGLEWIGYMNPYNDGIKYNEKFIGKAILTSDKSSSTAYMQLSSLTSEDSAVYYCTREGLFYVFDYWGQGTSVTVSS
VL: QIVLTQSPAIMSASPGEKVTMTCSATSSVSYMHWYQQKSGTSPKRWIYDSSKLASGVPVRFSGSGSGTSYSLTISSMEAEDAATYFCQWWRSDLPTFGAGTKLELKR
B14: Mutation 1-41 (antibody, V domains shown)
VH: EVQLQQPGPELVKPGASVKMSCKASGYTFTSYVIHWVRQKPGQGLEWIGYMNPYNDGIKYNEKFIGKAILTSDKSSSTAYMQLSSLTSEDSAVYYCTREGLFYVMDYWGQGTSVTVSS
VL: QIVLTQSPAIMSASPGEKVTMTCSATSSISYMHWYQQKSGTSPKRWIYDSSKLASGVPVRFSGSGSGTSYSLTISSMEAEDAATYFCQWWRSDLPTFGAGTKLELKR
B15: Mutation 1-38 (antibody, V domains shown)
VH: EVQLQQPGPELVKPGASVKMSCKASGYTFTSYVIHWVRQKPGQGLEWIGYMNPYNDGLKYNEKFIGKAILTSDKSSSTAYMQLSSLTSEDSAVYYCTKEGLFYVMDYWGQGTSVTVSS
VL: QIVLTQSPAIMSASPGEKVTMTCSATSSISYMHWYQQKSGTSPKRWIYDSSKLASGVPVRFSGSGSGTSYSLTISSMEAEDAATYFCQWWRSDLPTFGAGTKLELKR
B16: Mutation 1-26 (antibody, V domains shown)
VH: EVQLQQPGPELVKPGASVKMSCKASGYTFTSYVIHWVRQKPGQGLEWIGYMNPYNDGIKYNEKFIGKAILTSDKSSSTAYMQLSSLTSEDSAVYYCTREGLFYVMDYWGQGTSVTVSS
VL: QIVLTQSPAIMSASPGEKVTMTCSATSSLSYMHWYQQKSGTSPKRWIYDTSKLASGVPVRFSGSGSGTSYSLTISSMEAEDAATYFCQWWRSDLPTFGAGTKLELKR
B17: Mutation 1-37 (antibody, V domains shown)
VH: EVQLQQPGPELVKPGASVKMSCKASGYTFTSSVIHWVRQKPGQGLEWIGYMNPYNDGIKYNEKFIGKAILTSDKSSSTAYMQLSSLTSEDSAVYYCTREGLFYVFDYWGQGTSVTVSS
VL: QIVLTQSPAIMSASPGEKVTMTCSATSSVSYMHWYQQKSGTSPKRWIYDTSKLASGVPVRFSGSGSGTSYSLTISSMEAEDAATYFCQYWRSDLPTFGAGTKLELKR
B18: Mutation 1-27 (antibody, V domains shown)
VH: EVQLQQPGPELVKPGASVKMSCKASGYTFTSTVIHWVRQKPGQGLEWIGYMNPYNDGLKYNEKFIGKAILTSDKSSSTAYMQLSSLTSEDSAVYYCTREGLFYVFDYWGQGTSVTVSS
VL: QIVLTQSPAIMSASPGEKVTMTCSATSSVSYMHWYQQKSGTSPKRWIYDSSKLASGVPVRFSGSGSGTSYSLTISSMEAEDAATYFCQQWRSDLPTFGAGTKLELKR
B19: Mutation 1-35 (antibody, V domains shown)
VH: EVQLQQPGPELVKPGASVKMSCKASGYTFTSYVIHWVRQKPGQGLEWIGYMNPYNDGLKYNEKFIGKAILTSDKSSSTAYMQLSSLTSEDSAVYYCTKEGLFYVMDYWGQGTSVTVSS
VL: QIVLTQSPAIMSASPGEKVTMTCSATSSVSYMHWYQQKSGTSPKRWIYDSSKLASGVPVRFSGSGSGTSYSLTISSMEAEDAATYFCQWWRSDLPTFGAGTKLELKR

The test addresses DN-IV quality control recombinant protein (produced by the company) (dengue virus). As to the kind of experiment: BLI, antibody on AMC sensor. A general note: BLI is a label-free optical method that tracks binding on a fibre tip over time.
As a reminder, the Kd is a measure of binding affinity in units of concentration. The term koff denotes the rate constant with which the complex falls apart. As a reminder, the kon is the second-order rate constant of association. With B1, the Kd worked out at 3.97 nM, the koff was determined as 0.00019 s⁻¹ and the kon was determined as 47800 M⁻¹ s⁻¹.
The like results for B2 were, in that order, 2.85 nM, 0.000133 s⁻¹ and 46600 M⁻¹ s⁻¹.
For B3 the same measures were 0.56 nM, 0.000276 s⁻¹ and 493000 M⁻¹ s⁻¹.
For B4 the same measures were 0.631 nM, 0.000221 s⁻¹ and 350000 M⁻¹ s⁻¹.
On to B5, for which the Kd was 0.657 nM, the koff stood at 0.000282 s⁻¹ and the kon was determined as 429000 M⁻¹ s⁻¹.
For B6 the same measures were 0.671 nM, 0.000261 s⁻¹ and 389000 M⁻¹ s⁻¹.
The like results for B7 were, in that order, 0.591 nM, 0.000259 s⁻¹ and 438000 M⁻¹ s⁻¹.
The like results for B8 were, in that order, 2.89 nM, 0.000112 s⁻¹ and 38700 M⁻¹ s⁻¹.
With B9, the Kd worked out at 4.55 nM, the koff came to 0.000186 s⁻¹ and the kon came to 40900 M⁻¹ s⁻¹.
With B10, the Kd turned out to be 0.493 nM, the dissociation rate constant (koff) is 0.000178 s⁻¹ and the kon was found to be 361000 M⁻¹ s⁻¹.
With B11, the Kd was 2.92 nM, the koff came to 0.00014 s⁻¹ and the kon came to 47900 M⁻¹ s⁻¹.
The like results for B12 were, in that order, 3.12 nM, 0.000132 s⁻¹ and 42300 M⁻¹ s⁻¹.
For B13, the Kd was found to be 0.579 nM, the koff stood at 0.00023 s⁻¹ and the kon stood at 397000 M⁻¹ s⁻¹.
As for B14, the Kd amounted to 0.455 nM, the koff came to 0.00016 s⁻¹ and the kon was found to be 352000 M⁻¹ s⁻¹.
For B15 the same measures were 0.643 nM, 0.000292 s⁻¹ and 454000 M⁻¹ s⁻¹.
Take B16: the Kd was 3.61 nM, the koff turned out to be 0.000152 s⁻¹ and the kon came to 42100 M⁻¹ s⁻¹.
Regarding B17, the Kd amounted to 3.63 nM, the koff is 0.000145 s⁻¹ and the kon is 39900 M⁻¹ s⁻¹.
For the molecule B18, the Kd was 3.55 nM, the koff was found to be 0.000149 s⁻¹ and the kon was 42000 M⁻¹ s⁻¹.
The like results for B19 were, in that order, 0.661 nM, 0.000252 s⁻¹ and 381000 M⁻¹ s⁻¹.

For the origin of these results see patent publication US20210324054A1.
